Test [1] addresses T1, human CD3e/d (human, UniProt P07766 23-126; P04234 22-105).
T1 construct: Bought soluble protein; also called hCD3e/d; human CD3/ed (Sino CT038-H2508H)
Put plainly: SPR (Carterra LSA), mAb on chip. In outline: (§1)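 Purified mAbs amine-coupled (EDC/S-NHS) at 10 μg/mL in 10 mM NaOAc pH 4.25 onto an HC-30M chip, with benchmark and negative-control mAbs; analyte flowed over the array. Double-referenced sensorgrams fitted globally to a 1:1 Langmuir model for ka, kd and KD.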

In test [2] the target is T2, human CD3e/g (human, UniProt P07766 23-126; P09693 23-116).
T2 construct: Bought soluble protein; also called hCD3e/g; human CD3e/g (Acro CDD-C52W4)
Put plainly: SPR (Carterra LSA), mAb on chip. In outline:
as §1

T2 sequence (P07766 23-126, chain 1 of 2): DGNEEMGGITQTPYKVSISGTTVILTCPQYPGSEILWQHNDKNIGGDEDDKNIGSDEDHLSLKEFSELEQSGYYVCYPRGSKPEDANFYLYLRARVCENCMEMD
T2 sequence (P09693 23-116, chain 2 of 2): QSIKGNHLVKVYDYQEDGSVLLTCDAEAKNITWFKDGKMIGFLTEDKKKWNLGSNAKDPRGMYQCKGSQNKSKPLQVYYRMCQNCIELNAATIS
T1 sequence (P07766 23-126, chain 1 of 2): as the sequence (P07766 23-126, chain 1 of 2) above
T1 sequence (P04234 22-105, chain 2 of 2): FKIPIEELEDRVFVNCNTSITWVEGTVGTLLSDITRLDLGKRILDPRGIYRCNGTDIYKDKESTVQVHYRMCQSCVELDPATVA

B1: mAb 283 (antibody, V domains shown)
VH: QVHLVQSGAEVKKPGASVRVSCKASGYTFTGYYIHWLRQAPGQGLEWLGWINPNSGGTNYSQKFRGRVTMTRDTSISTAYMELSRLRSDDTAVYYCARDKVWEQQLVGGFDYWGQGTLVTVSS
VL: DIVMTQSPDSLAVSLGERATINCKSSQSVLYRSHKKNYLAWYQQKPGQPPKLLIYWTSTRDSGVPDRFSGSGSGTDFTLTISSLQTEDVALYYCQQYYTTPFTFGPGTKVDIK
notes: VH and VL only
On to B1, for which the results for the dissociation constant (Kd) in test [1] and in test [2] were 160 nM and 20 nM, respectively.

B2: mAb 252 (antibody, V domains shown)
VH: EVQILESGGGLVQPGGSLRLSCVASGFTFRSYVMSWVRRAPGRGLEWVSGISTSGGNTYYADSVKGRFTISRDNSKNTLFLQMNGLRAEDTAVYYCAKLFSYYYYFMDVWGKGTTVTVSS
VL: SYELTQPLSVSVALGQTARITCGGNNIGSKDVHWYQQKPGQAPVLVIYRDSNRPSGIPERFSGSNSGNTATLTISGAQAGDEADYYCQVWDRRTAVFGGGTQLTAL
notes: VH and VL only
As for B2, the equilibrium dissociation constant (Kd) in test [1] is 30 nM; in test [2], 13 nM.

B3: mAb 264 (antibody, V domains shown)
VH: EVQLLESGGGLVQPGGSLRLSCVASGFTFRSSSMTWVRQAPGKGLEWVSGIRGSGGRTYDAESVKGRFTISRDNSKNTLYLQMNSLRAEDTAEYYCAKLYDYYNDYMDVWGKGTTVTVSS
VL: SYELTQPLSVSVALGQTARITCGGNNIGSKNVHWYQQKPGQAPVLVIYRDSNRPSGIPERFSGSNSGNTATLTISRAQAGDEADYYCQVWDSSTAVFGGGTQLTAL
notes: VH and VL only
B3: the equilibrium dissociation constant (Kd) in test [1] was 32 nM; in test [2], 7.4 nM.

B4: mAb 263 (antibody, V domains shown)
VH: EVQLLESGGGLVQPGGSLRLSCTPSGITFNNYAMTWVRQAPGKGLEWVSGISVSGGSTYYADSVMGRFTISRDSSKTLYLQMNSLRAEDTAVYYCAKFHSHYYYYMDVWGKGTTVTVSS
VL: SYELTQPLSVSVALGQTARITCGGNNIGSKDVHWYQQKPGQAPVLVIYRDSNRPSGIPERFSGSNSGNTATLTISRAQAGDEADYYCQVWDRRTAVFGGGTQLTAL
notes: VH and VL only
As to B4, the Kd was 9 nM in test [1] and 4.1 nM in test [2].

B5: mAb 297 (antibody, V domains shown)
VH: EVQLLESGGGLVQPGGSLRLSCAASGFTFSSYAMNWVRQAPGKGLEWVSIISGGRRDDITYYAASVKGRFTISRDNSKNTLYLQMNSLRAEDTAVYYCAKMYNYYYYYIDVWGKGTTVTVSS
VL: SYELTQPLSVSVALGQTAKITCGGNNIGSKDVHWYQQKPGQAPVLVIYRDSNRPSGIPERFSGSNSGNTATLTISRAQAGDEADYYCQVWDSNTAVFGGGTQLTAL
notes: VH and VL only
As for B5, the Kd in test [1] stood at 66 nM; in test [2] it was 18 nM.

B6: mAb 303 (antibody, V domains shown)
VH: EVHLLESGGGLVQPGGSLRLSCAASGFTFSSYAMNWVRQAPGKGLEWISIISGGRRSGITYYAASVKGRFTISRDNSKNTLDLQMNSLRAEDTAVYYCAKMYNYYYYYIDVWGKGTTVTVSS
VL: SYELTQPLSVSVALGQTARITCGGNNIGSKDVHWYQQKPGQAPVLVIYRDSNRPSGIPERFSGSNSGNTATLTISRAQAGDEADYYCQVWDSNTAVFGGGTQLTAL
notes: VH and VL only
For the molecule B6, the Kd in test [1] is 47 nM; in test [2], 5.5 nM.

B7: mAb 259 (antibody, V domains shown)
VH: EVLLLESGGGLVQPGGSLRLSCAASGFTFRSSSMTWVRQAPGKGLEWVSGIRGSGGRTYDAESVKGRFTISRDISKNTLYLQMNSVRAEDTAEYYCAKLYDYYNDYMDVWGKGTTVTVSS
VL: SYELTQPLSVSVALGQTARITCGGNNIGSKNVHWYQQKPGQAPVLVIYRDSNRPSGIPERFSGSNSGNTATLTISRAQAGDEADYYCQVWDSSTAVFGGGTQLTAL
notes: VH and VL only
On to B7, for which the Kd was 63 nM in test [1] and 13 nM in test [2].

B8: mAb 292 (antibody, V domains shown)
VH: EVQLLESGGGLVQPGGSRRLSCAASGFTFSTYAMSWVRQAPGKGLEWVSVINGRGDDTNYADSVKGRFTISRDNSKNILFLQMNSLRAEDTAVYYCAKKYSYYYYYMDVWGKGTTVTVSS
VL: SYELTQPLSVSVALGQTARITCGGNNIGSKDVHWYQQKPGQAPVLVIYRDSNRPSGIPERFSGSNSGNTATLTISRAQAGDEADYYCQVWDSRTAVFGGGTQLTAL
notes: VH and VL only
For B8, the Kd in test [1] was 91 nM; in test [2], 47 nM.

B9: mAb 296 (antibody, V domains shown)
VH: EVQLLESGGGLVQPGGSLRLSCAASGFTFSSYAMSWVRQAPGKGLEWVSAISGSGGTTYYTDSVKGRFTISRDNSKNTLYLQMNSLRAEDTAVYYCAKKYSYYYYYMDVWGKGTTVTVSS
VL: SYELTQPLSVSVALGQTARITCGGNNIGSKNVHWYQQKPGQAPVLVIYRDSNRPSGIPERFSGSNSGNTATLTISRAQAGDEADYYCQVWDSSTAVFGGGTQLTAL
notes: VH and VL only
Consider B9, for which the Kd in test [1] amounted to 370 nM; in test [2] it was 180 nM.

B10: mAb 262 (antibody, V domains shown)
VH: EVRLLESGGGLVQPGGSLRLSCAASGFTFRSSSMAWVRQDPGKGLEWVTGIRGSGGRTYDADSVKGRFTISRDNSKNTLYLQMNSLRAEDTAEYYCAKLYDYYNDYMDVWGKGTTVTVSS
VL: SYELTQPLSVSVALGQTARITCGGNNIGSKNVHWYQQKPGQAPVLVIYRDSNRPSGIPERFSGSNSGNTATLTISRAQAGDEADYYCQVWDSSTAVFGGGTQLTAL
notes: VH and VL only
As for B10, the dissociation constant Kd was 26 nM in test [1] and 10 nM in test [2].

B11: mAb 260 (antibody, V domains shown)
VH: EVQLLESGGGLVQPGGSLRLSCVASGFTFRSSSMAWVRQAPGKGLEWVSGIRGSGGRTYDAESVKGRFIISRDTSKNTLYLQMNSLRGEDTAEYFCAKLYDYYNDYMDVWGKGTTVTVSS
VL: SYELTQPLSVSVALGQTARITCGGNNIGSKNVHWYQQKPGQAPVLVIYRDSNRPSGIPERFSGSNSGNTATLTISRAQAGDEADYYCQVWDSSTAVFGGGTQLTAL
notes: VH and VL only
For B11, the Kd worked out at 28 nM in test [1] and 4.2 nM in test [2].

B12: mAb 261 (antibody, V domains shown)
VH: EVQLLESGGGFMQPGGSLRLSCAVSGFTFRTSSMAWVRQAPGKGLEWVSGIRGSGGRTYDAESVKGRFTISRDISKNTLYLQMNNLRAEDTAEYYCAKLYDYYNDFMDVWGKGTTVIVSA
VL: SYELTQPLSVSVALGQTARITCGGNNIGSKNVHWYQQKPGQAPVLVIYRDSNRPSGIPERFSGSNSGNTATLTISRAQAGDEADYYCQVWDSSTAVFGGGTQLTAL
notes: VH and VL only
Turning to B12, the Kd in test [1] stood at 16 nM; in test [2], 3 nM.

B13: mAb 273 (antibody, V domains shown)
VH: EVQLVESGGGLVQPGESLKLSCTASGFTFSVSAIHWVRQASGKGLEWVGRIRSKANSYATAYVASVKGRFTLSRDDSKNTAYLQMNSLKTEDTAVYYCSSYYFVSGTYYNHWGQGTLVTVSS
VL: DIQMTQSPSSLSASVGDRVTITCRASQGIRYDLGWYQQKPGRAPKRLIHSVSSLQSGVPSRFSGSGSGTEFTLTISSLQPEDFATYYCLQHNVNPCTFGQGTKLEIK
notes: VH and VL only
For B13, the dissociation constant (Kd) in test [1] was 75 nM; in test [2], 46 nM.

B14: mAb 90 (antibody, V domains shown)
VH: EVQLVESGGGLVQPGGSLKLSCAASGFTFSGSAMHWVRQASGKGLEWVGRIRTKPNSYATSYAASVKDRFTISRDDSKNTAYLQMNSLKTEDTAVYYCIRGELEPWGQGTLVTVSS
VL: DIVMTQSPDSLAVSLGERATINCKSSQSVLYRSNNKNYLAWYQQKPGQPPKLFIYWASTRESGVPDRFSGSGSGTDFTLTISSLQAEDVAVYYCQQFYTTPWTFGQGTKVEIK
notes: VH and VL only
Consider B14, for which the Kd in test [1] was 33.3 nM; in test [2], 41 nM.

B15: mAb 72 (antibody, V domains shown)
VH: EVQLVDSGGGLVQPGGSLRLSCAASGFTFSSYWMSWVRQAPGKGLEWVANIKQDGSEKYYVDSVKGRFTISRDNVKNSLSLEMNSLRAEDTALYYCARDESSSWYWYFDLWGRGTLVTVSS
VL: DIQMTQSPSTLSASVGDRVTITCRASQSISKWLAWYQQKPGKAPKLLIYKASSLENGVPSRFSGSGSGTEFTLTISSLQPDDFATYYCQQYSSYSRTFGQGTKVEIK
notes: VH and VL only
In the case of B15, the Kd in test [1] is 606 nM; in test [2], 394 nM.

B16: mAb 78 (antibody, V domains shown)
VH: EVQLVESGGGLVQPGGSLRLSCAASGFTFSSYWMSWVRQAPGKGLEWVANIKQDGSEKYYVDSVKGRFTISRDNAKNSLYLQMNSLRAEDTAVYYCARDNSPSFYWYFDLWGRGTLVTVSS
VL: DIQMTQSPSTLSASVGDRVTITCRASQSLSRWLAWYQQKPGKAPKLLIYKASSLESGVPSRFSGSGSGTEFTLTISSLQPDDFATYYCQQYYTYSRTFGQGTKVEIK
notes: VH and VL only
Turning to B16, the Kd in test [1] was determined as 283 nM; in test [2], 1260 nM.

B17: mAb 99 (antibody, V domains shown)
VH: QGQLVESGGGVVQPGRSLRLSCAASGFTFRGFGMHWVRQAPGKGLEWVAIIYYDGKNKYYADSVKGRFTISRDNSKNTLYLQMNSLRAEDTAVYYCAKGGGYNWFDPWGQGTLVTVSS
VL: DIQMTQSPSSLSASVGDRVTITCRASQSISTYLNWYQQKPGKAPKLLIYSASSLQSGVPSRFSGSGSGTDFTLTISNLQPEDFAIYYCQRSYSPPFTFGPGTKLDIR
notes: VH and VL only
For B17, the Kd in test [1] is 8.92 nM; in test [2], 11.6 nM.

B18: mAb 97 (antibody, V domains shown)
VH: QGQLVESGGGVVQPGRSLRLSCAASGFTFRGYGMHWVRQAPGKGLEWVAIIYYDGKNKYYADSVKGRFTISRDNSKNTLYLQMNNLRVEDTAVYYCARGGGYNWFDPWGQGTLVTVSS
VL: DIQMTQSPSSLSASIGDRVTITCRASQSISNYLNWYQQKPGKAPKLLIYSASSLQSGVPSRFSGSGSGTDFTLTISNLQPEDFAIYYCQRSYSPPFTFGPGTKLDIR
notes: VH and VL only
In the case of B18, the Kd is 16.5 nM in test [1] and 17.8 nM in test [2].

B19: mAb 93 (antibody, V domains shown)
VH: QVQLVESGGGVVQPGRSLRLSCAASGFTFRGYGMHWVRQAPGKGLEWVAIIYYNGNNKYYADSVKGRFTISRDNSKNTLYLQMNSLRAEDTAVYYCARGGGYNWFDPWGQGTLVTVSS
VL: DIQMTQSPSSLSASVGDRVTITCRASQSISNYLNWYQQEPGKAPKLLIYTASSLQSGVPSRFSGSGSGTAFTLTISSLQPEDFAIYYCQRSSSPPFTFGPGTKLDIK
notes: VH and VL only
Take B19: the figures for the equilibrium dissociation constant (Kd) in test [1] and in test [2] were 47.8 nM and 35.8 nM, respectively.

B20: mAb 276 (antibody, V domains shown)
VH: EVQLVESGGGLVQPGGSLRLSCAASGIPFSTYSMNWVRQAPGKGLEWVSYISGSSRTIYYADSVKGRFTISRDNAKKLLFLQMNSLRDEDTAVYYCAREGDYYDSSGWAYWGQGTLVTVSS
VL: DIQMTQSPSSLSASVGDRVTITCRASQNIYKYLNWYEQKPGRAPKLLIYTTSNLQSGVPSRFSGSGSGTAFTLIISSLQPEDFATYYCQQSYGSPYTFGQGTKLEIK
notes: VH and VL only
In the case of B20, the Kd in test [1] is 15 nM; in test [2], 9.6 nM.

Broadly, the Kd is the free concentration of one partner at which half of the binding sites on the other are occupied at equilibrium, for simple one-to-one binding. High values mean weaker binding, low ones tighter binding.
